Biological target: T1, hGITR.mFc (dimeric recombinant human GITR ectodomain protein, mouse Fc fusion) (human)
T1 construct: also called dimeric human GITR; dimeric GITR
T1 chain: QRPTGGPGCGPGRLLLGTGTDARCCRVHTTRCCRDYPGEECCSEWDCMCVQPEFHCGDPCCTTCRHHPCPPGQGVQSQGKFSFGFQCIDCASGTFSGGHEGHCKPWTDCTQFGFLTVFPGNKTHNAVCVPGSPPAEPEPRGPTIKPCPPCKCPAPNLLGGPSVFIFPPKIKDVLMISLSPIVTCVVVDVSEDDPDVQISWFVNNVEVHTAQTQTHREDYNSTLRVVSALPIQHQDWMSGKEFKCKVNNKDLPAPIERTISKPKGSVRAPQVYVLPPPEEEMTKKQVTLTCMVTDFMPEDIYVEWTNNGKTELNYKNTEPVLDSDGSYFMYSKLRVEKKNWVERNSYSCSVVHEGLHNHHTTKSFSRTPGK
Assay: SPR Biacore T-200; purified antibody captured on anti-human Fc; 5 nM hGITR.mFc
Procedure: For purified antibodies, Biacore experiments were performed as follows. Using a Biacore T-200 instrument, antibodies were captured for 30 seconds at a flow rate of 8 uL/min on a CM5 anti-humanFc-coupled surface. Approximately 120 RU of each antibody were captured. 10 nM hGITR.mmH (soluble monomeric hGITR, SEQ ID NO: 45) or 5 nM hGITR.mFc (dimeric Macaca fasicularis GITR, SEQ ID NO: 46) were injected over this surface for 5 minutes at a flow rate of 50 uL/min. Dissociation was measured for 10 min. The KD and t_{1/2} were calculated by fitting the double-referenced sensorgrams to a 1:1 binding model.

B1: mAb1 (antibody, human IgG1, kappa, V domains shown)
VH: QVQLQESGPGLVKPSETLSLTCIVSGGSISGYFWNWIRQPPGKGLEWIGYIYYSGTTIYNPSLKSRFTISLDTSKNQFSLKLTSVTAADTAVYYCARESYDPSPRYFDHWGQGTLVTVSS
VL: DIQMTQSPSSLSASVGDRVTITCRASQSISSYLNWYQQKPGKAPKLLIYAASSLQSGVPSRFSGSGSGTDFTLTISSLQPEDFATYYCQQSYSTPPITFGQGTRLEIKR
notes: Human IgG1; N101D variant of CompAb1; also called N101D Variant; N101D
Kd: 0.104 nM
t1/2: 1.2 h
